Consider five molecules from article PMC5267525, “Sec3 promotes the initial binary t-SNARE complex assembly and membrane fusion” (Nature Communications, 2017).

Where a chain is given by its changes, count along the chain named.

The term kon denotes the rate constant with which the complex forms.

The chains are these.
T1: GST-Sec3N (Sec3 N-terminus, a.a. 1–320) (yeast, UniProt P33332 1-320)
T1 construct: Sec3, yeast exocyst subunit, N-terminus a.a; 1-320; also called pG1860; source: E. coli BL21(DE3), purified (Glutathione Sepharose 4B)
T1 sequence (looked up): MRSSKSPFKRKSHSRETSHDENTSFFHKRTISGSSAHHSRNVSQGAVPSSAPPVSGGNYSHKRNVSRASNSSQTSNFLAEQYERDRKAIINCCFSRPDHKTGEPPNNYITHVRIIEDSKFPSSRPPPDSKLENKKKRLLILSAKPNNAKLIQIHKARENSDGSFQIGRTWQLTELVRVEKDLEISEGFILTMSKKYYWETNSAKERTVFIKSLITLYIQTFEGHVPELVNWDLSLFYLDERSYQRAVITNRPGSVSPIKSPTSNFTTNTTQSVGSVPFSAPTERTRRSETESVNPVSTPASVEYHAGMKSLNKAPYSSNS

T2: His6-Sso2-mutHL2 (a.a. 1–270, 170DVNGQ174 to 170GSSGG174) (yeast, UniProt P39926 1-270, 170DVNGQ174 to 170GSSGG174)
T2 construct: Sso2, yeast t-SNARE, cytosolic domain a.a; 1-270, mutated directly from pG707; also called pG1971
T2 sequence (looked up): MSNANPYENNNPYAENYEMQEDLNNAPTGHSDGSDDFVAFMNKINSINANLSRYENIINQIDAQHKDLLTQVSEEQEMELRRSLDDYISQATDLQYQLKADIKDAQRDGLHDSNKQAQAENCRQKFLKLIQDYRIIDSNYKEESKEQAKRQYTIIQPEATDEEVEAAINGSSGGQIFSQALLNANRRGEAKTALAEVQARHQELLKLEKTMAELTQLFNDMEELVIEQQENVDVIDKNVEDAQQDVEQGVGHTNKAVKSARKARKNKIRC

T3: Sso2 (a.a. 1–270), as used in size-exclusion chromatography (yeast, UniProt P39926 1-270)
T3 construct: Sso2, yeast t-SNARE, a.a; The text says that this complex was later used for crystallization, for which the methods give Sso2 a.a; 36-227 with the His6 tag cleaved; the legend's limits are kept
T3 sequence (looked up): T2 sequence (looked up) with G170D, S171V, S172N, G174Q

B1: Sso2 reconstituted in liposomes (natural protein, yeast, UniProt P39926 1-295, looked up)
chain: MSNANPYENNNPYAENYEMQEDLNNAPTGHSDGSDDFVAFMNKINSINANLSRYENIINQIDAQHKDLLTQVSEEQEMELRRSLDDYISQATDLQYQLKADIKDAQRDGLHDSNKQAQAENCRQKFLKLIQDYRIIDSNYKEESKEQAKRQYTIIQPEATDEEVEAAINDVNGQQIFSQALLNANRRGEAKTALAEVQARHQELLKLEKTMAELTQLFNDMEELVIEQQENVDVIDKNVEDAQQDVEQGVGHTNKAVKSARKARKNKIRCLIICFIIFAIVVVVVVVPSVVETRK
notes: Sso2, yeast t-SNARE, called the full-length Sso2 in the fusion assays; also called Sso2 liposomes; t-SNARE liposomes reconstituted with Sso2; source: reconstituted in POPC/DOPS liposomes
B2: His6-Sso2 (cytosolic domain, a.a. 1–270) (domain or fragment, yeast, UniProt P39926 1-270, looked up)
chain: T2 sequence (looked up) with G170D, S171V, S172N, G174Q
notes: Sso2, yeast t-SNARE, cytosolic domain a.a; 1-270; also called pG707
B3: GST-tagged Sec9 C-terminal SNARE domain (a.a. 414–651) (domain or fragment, yeast, UniProt P40357 414-651, looked up)
chain: EEARQQQEEDEAVDEIKQEIKFTKQSSVASTRNTLKMAQDAERAGMNTLGMLGHQSEQLNNVEGNLDLMKVQNKVADEKVAELKKLNRSILAVHVSNPFNSKRRRREREEQLKNRKIEEKLMREQTSQQLSQSTQRIEGAMNANNNISEVRERYQRKNVLEKAKRYQFENDEEDDEMELEIDRNLDQIQQVSNRLKKMALTTGKELDSQQKRLNNIEESTDDLDINLHMNTNRLAGIR
notes: Sec9, yeast t-SNARE (SNAP-23 homologue), C-terminal SNARE domain a.a; 414-651; also called GST-Sec9C; pG1067; source: E. coli BL21(DE3), purified (Glutathione Sepharose 4B)
B4: Sec3 N-terminal domain (a.a. 75–320) (domain or fragment, yeast, UniProt P33332 75-320, looked up)
chain: SNFLAEQYERDRKAIINCCFSRPDHKTGEPPNNYITHVRIIEDSKFPSSRPPPDSKLENKKKRLLILSAKPNNAKLIQIHKARENSDGSFQIGRTWQLTELVRVEKDLEISEGFILTMSKKYYWETNSAKERTVFIKSLITLYIQTFEGHVPELVNWDLSLFYLDERSYQRAVITNRPGSVSPIKSPTSNFTTNTTQSVGSVPFSAPTERTRRSETESVNPVSTPASVEYHAGMKSLNKAPYSSNS
notes: Sec3, yeast exocyst subunit, N-terminal domain a.a; 75-320 (contains the PH domain); Cloned in the custom vector MalpET; tag cut off by tobacco etch virus protease; also called Sec3(a.a. 75–320); source: E. coli BL21(DE3), purified (Ni-HiTrap, HiTrap-Q HP, Superdex-200); not shown: MBP-His10, N-terminal, cleaved
B5: Sso2 Habc and SNARE motif (a.a. 36–227) (domain or fragment, yeast, UniProt P39926 36-227, looked up)
chain: DFVAFMNKINSINANLSRYENIINQIDAQHKDLLTQVSEEQEMELRRSLDDYISQATDLQYQLKADIKDAQRDGLHDSNKQAQAENCRQKFLKLIQDYRIIDSNYKEESKEQAKRQYTIIQPEATDEEVEAAINDVNGQQIFSQALLNANRRGEAKTALAEVQARHQELLKLEKTMAELTQLFNDMEELVIE
notes: Sso2, yeast t-SNARE, Habc and the SNARE motif, a.a; 36-227; Cloned in pET15b; tag removed by thrombin; also called Sso2 (a.a. 36–227); source: E. coli BL21(DE3), purified (Ni-HiTrap, HiTrap-Q HP, Superdex-200); not shown: His6, N-terminal, cleaved

Common to all, as to details: both partners purified
Experiment [1] has as its target T1, GST-Sec3N (Sec3 N-terminus, a.a. 1–320). Briefly: co-sedimentation; liposomes containing Sso2 incubated with Sec9C in the presence or absence of Sec3N at 25 °C for 30 min; liposomes collected by sedimentation; SDS-PAGE, Coomassie blue; Sso2-free liposomes as control.
Experiment [2] shares this target. The experiment is described as follows: pull-down; GST-Sec3N on glutathione Sepharose with His6-Sso2 or His6-Sec9C, or with both in three orders of addition (simultaneous; Sec3N and Sso2 pre-incubated 30 min; Sso2 and Sec9C pre-incubated 2 h); 5 μg His6-Sec9C; Coomassie blue.
The target of experiment [3] is B2. The experiment is described as follows: pull-down; time course as a6, but His6-Sso2 (2 μM) pre-incubated with His6-Sec3N (2 μM) for 30 min at 25 °C before GST-Sec9C (20 μg) on glutathione Sepharose 4B; apparent rate constant from a second-order fit.
For experiment [4], the target named is B2. Briefly: pull-down; time course: His6-Sso2 (2 μM) alone added to GST-Sec9C (20 μg) on glutathione Sepharose 4B, 100 μl, 25 °C; bound Sso2 quantified from Coomassie gels; apparent rate constant from a second-order fit.
Experiment [5] concerns the target T2, His6-Sso2-mutHL2 (a.a. 1–270, …). The experiment is described as above.
Experiment [6] concerns the target T3, Sso2 (a.a. 1–270), as used in …. The experiment is described as follows: SEC; Superdex-200 16/60 column; proteins applied individually or in mixture, Sso2 with excess Sec3N. (In general: Size exclusion chromatography separates by hydrodynamic size, large species first.)
The target of experiment [7] is B4. The experiment is described as follows: crystal structure; crystal form 1, space group C222(1); 0.1 M HEPES pH 7.0, 0.2 M NaCl, 25% PEG 3350; 2.20 Å.

For the molecule B1, in experiment [1], the binding result was “binds”.

Regarding B2, in experiment [2], the binding result is on record as “binds”.

Turning to B3, the kon in experiment [3] amounted to 200 ± 90 M⁻¹ s⁻¹; in experiment [4], 15.2 ± 0.6 M⁻¹ s⁻¹. The binding result in experiment [5] is listed as “binds”.

For the molecule B4, the binding result in experiment [6] is on record as “binds”.

Turning to B5, the binding result in experiment [7] is recorded as “binds”.
